# Measurements published in patent US20200317768A1 (published 2020).
# Substitutions are numbered along the chain they refer to.
# B1: MS_M103205H714-SG1/M103202L861-SK1 (antibody, human IgG1, kappa, V domains shown)
# VH: QVTLKESGPVLVKPTETLTLTCTVSGIDLSHTDISWVRQAPGKGLEWVGIISYAGSTYYASWAKGRLTISKDTSKNQVVLTMTNMDPVDTATYYCARGVPAYSHGGDLWGQGTLVTVSS
# VL: DIVMTQSPATLSLSPGERATLSCTSSQSVYHNNWLSWFQQKPGQPPKLLIYWASTLAYGVPSRFSGSGSGTDFTLTISSLQPEDAATYYCAGGYGGGRYAFGQGTKVEIKR
# notes: also called MS1032LO01-SG1; MSLO-01
# B2: MST1538 (antibody, human IgG1, kappa, V domains shown)
# VH: QSLEESGGGLVKPGGTLTLTCKASGIDFSSYYYMCWVRQAPGKGLEWIACIYAGISGSTYYASWAKGRFTISKTSSTTVTLQMTSLTAADTATYFCARDPYHFDYGSLWGPGTLVTVSS
# VL: ALVMTQTPASVSAAVGGTVTINCQASQSVYGGNELSWYQQEPGQPPKLLIYSASKLASGVPSRFKGSGSGTQFTLTISGVQCDDAAAYYCAGYRTYSDDDNAFGGGTKVEIKR
# B3: MST1032 (as tested in Example 26) (antibody, V domains shown)
# VH: QSLEESGGRLVTPGGSLTVTCRVSGIDLSSYDISWVRQAPGKGLEWIGIISYAGSTYYASWAKGRFTISKTSTTVDLKMTSLTTEDTATYFCARGVPAYSTGGDLWGPGTLVTVSS
# VL: AQVLTQTASSVSAAVGGTVTINCQSSQSVYDNNWLSWFQQKPGQPPKLLIYWASTLASGVPSRFKGSGSGTQFTLTISDLECDDAATYYCAGGYGGGLYAFGGGTKVEIK
# B4: MS103240H795-TT14/M103202L1045-SK1 (antibody, human IgG1, kappa)
# heavy: QVQLVESGGGLVQPGGSLRLSCAVSGIDLSHDDISWVRQAPGKGLEWVSIISYAGSTYYASWAKGRLTISKDTSKNQVVLTMTNMDPVDTATYYCARGVPAYSHGGDLWGQGTLVTVSSASTKGPSVFPLAPSSKSTSGGTAALGCLVKDYFPEPVTVSWNSGALTSGVHTFPAVLQSSGLYSLSSVVTVPSSSLGTQTYICNVNHKPSNTKVDKKVEPKSCDKTHTCPPCPAPEYLGGDSVFLFPPKPKDVLMISRTPEVTCVVIDVSHEDPEVKFNWYVDGVEVHNAKTKPREEQYNSTYRVVSVLPVLHQDWLNGKEYKCKVSNKALPKPIEKTISKAKGQPREPQVYTLPPSREEMTKNQVSLTCLVKGFYPSDIAVEWESNGQPENNYKTTPPVLDSDGSFFLYSKLTVDKSRWQQGNVFSCSVMHEALHNHYTQKSLSLSP
# light: DIVMTQSPATLSLSPGERATLSCTTSQSVYHENWLSWFQQKPGQPPKLLIYWASTLAYGVPSRFSGSGSGTDFTLTISSLQPEDAATYYCAGGYGGGRYAFGQGTKVEIKRTVAAPSVFIFPPSDEQLKSGTASVVCLLNNFYPREAKVQWKVDNALQSGNSQESVTEQDSKDSTYSLSSTLTLSKADYEKHKVYACEVTHQGLSSPVTKSFNRGEC
# B5: MS103240H795-TT33/M103202L1045-SK1 (antibody, human IgG1, kappa)
# heavy: B4 heavy with Q313R, D415K
# light: B4 light
# How the values were obtained:
# Human latent myostatin [1] = target: T1, Human latent myostatin (human, UniProt O14793 25-266; O14793 267-375); test: SPR (BIACORE T200), 37 C, pH7.4, avidity condition (capture 185 RU), 1:1 fit; pH 7.4
# T1 construct: Biotinylated in the ELISAs; also called human myostatin latent form
# T1 sequence 1: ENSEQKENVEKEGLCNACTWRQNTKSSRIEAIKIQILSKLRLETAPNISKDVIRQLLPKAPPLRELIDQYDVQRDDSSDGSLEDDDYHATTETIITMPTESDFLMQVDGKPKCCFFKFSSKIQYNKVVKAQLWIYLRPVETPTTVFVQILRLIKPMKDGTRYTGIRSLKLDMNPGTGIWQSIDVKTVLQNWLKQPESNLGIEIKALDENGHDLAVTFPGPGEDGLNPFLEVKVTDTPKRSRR
# T1 sequence 2: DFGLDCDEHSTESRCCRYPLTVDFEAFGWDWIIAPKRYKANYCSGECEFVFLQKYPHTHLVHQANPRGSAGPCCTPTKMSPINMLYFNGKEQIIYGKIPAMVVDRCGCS
# Description: (§1) The kinetic parameters of anti-latent myostatin antibodies against human, cynomolgus monkey (cyno), and mouse latent myostatin were assessed at 37° C. at pH7.4 using a BIACORE® T200 instrument (GE Healthcare). ProA/G (Pierce) was immobilized onto all flow cells of a CM4 chip using amine coupling kit (GE Healthcare). Anti-latent myostatin antibody and analytes were prepared in ACES pH7.4 (20 mM ACES, 150 mM NaCl, 1.2 mM CaCl₂), 0.05% TWEEN® 20, 0.005% NaN₃). […] Then human, cyno, or mouse latent myostatin was injected at 3.125 to 50 nM prepared by two-fold serial dilution, followed by dissociation. The sensor surface was regenerated with 25 mM NaOH. Kinetic parameters were determined by processing and fitting the data to a 1:1 binding model using BIACORE® T200 Evaluation software, version 2.0 (GE Healthcare).
# (§2) All experimental settings were the same as in Example 7, except that measurements were also performed in ACES pH5.8 buffer in addition to ACES pH7.4 condition. Some antibodies were only measured against human latent myostatin. Antibody capture level was aimed at 185 RU and 18.5 RU, for avidity and affinity assay, respectively. Kinetic parameters were determined using 1:1 Binding fitting using BIACORE® T200 Evaluation software, version 2.0 (GE Healthcare).
# [2] = target: T2, Cynomolgus monkey latent myostatin (cynomolgus monkey, UniProt Q95J86 25-266; Q95J86 267-375); test: as above
# T2 construct: signal 1-24; also called Cyno latent myostatin
# T2 sequence 1: T1 sequence 1 with V52A
# T2 sequence 2: T1 sequence 2
# Description: as §1, §2
# Mouse latent myostatin [3] = target: T3, Mouse latent myostatin (mouse, UniProt O08689 26-267; O08689 268-376); test: as above
# T3 construct: signal 1-24
# T3 sequence 1: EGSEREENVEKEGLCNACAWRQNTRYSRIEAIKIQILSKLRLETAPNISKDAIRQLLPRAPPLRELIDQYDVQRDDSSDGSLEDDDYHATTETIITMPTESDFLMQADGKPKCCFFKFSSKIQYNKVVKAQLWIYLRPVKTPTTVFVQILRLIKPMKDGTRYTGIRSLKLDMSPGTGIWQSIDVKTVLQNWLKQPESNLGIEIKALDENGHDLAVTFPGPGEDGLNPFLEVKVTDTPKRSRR
# T3 sequence 2: T1 sequence 2
# Description: as §1, §2
# Human latent myostatin [4] = target: T1, Human latent myostatin; test: SPR (BIACORE T200), 37 C, pH5.8, avidity condition (capture 185 RU), 1:1 fit; pH 5.8
# Description: as §1, §2
# [5] = target: T2, Cynomolgus monkey latent myostatin; test: as above
# Description: as §1, §2
# Mouse latent myostatin [6] = target: T3, Mouse latent myostatin; test: as above
# Description: as §1, §2
# Human latent myostatin [7] = target: T1, Human latent myostatin; test: SPR (BIACORE T200), 37 C, pH7.4, 1:1 fit; title prints avidity, by the text the affinity condition (capture 18.5 RU)
# Description: as §1, §2
# [8] = target: T2, Cynomolgus monkey latent myostatin; test: as above
# Description: as §1, §2
# Mouse latent myostatin [9] = target: T3, Mouse latent myostatin; test: as above
# Description: as §1, §2
# GST-hMSTN 61-160aa = target: T4, GST-hMSTN 61-160aa (human, UniProt O14793 61-160); test: Western blot on GST tagged fragments
# T4 construct: As GST-hMSTN 1-100aa; also called fourth fragment; not shown: GST tag from the pGEX4.1 vector
# T4 sequence: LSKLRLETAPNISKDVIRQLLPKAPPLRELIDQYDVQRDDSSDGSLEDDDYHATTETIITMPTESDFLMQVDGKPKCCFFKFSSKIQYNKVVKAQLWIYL
# Text: (§3) Fragments of the N-terminal propeptide coding region of human latent myostatin were cloned into a pGEX4.1 vector so as to produce GST tagged propeptide fragments of 100 amino acid each, with 80 amino acid overlap (FIG. 22A). Protein expression was induced in transformed BL21 competent cells with Overnight Express Autoinduction System (Merck Millipore) and protein was extracted using the BUGBUSTER® protein extraction reagent (Novagen).
# GST-hMSTN 81-180aa = target: T5, GST-hMSTN 81-180aa (human, UniProt A1C2U3 81-180 (Pongo pygmaeus entry)); test: Western blot on GST tagged fragments
# T5 construct: As GST-hMSTN 1-100aa; also called fifth fragment; not shown: GST tag from the pGEX4.1 vector
# T5 sequence: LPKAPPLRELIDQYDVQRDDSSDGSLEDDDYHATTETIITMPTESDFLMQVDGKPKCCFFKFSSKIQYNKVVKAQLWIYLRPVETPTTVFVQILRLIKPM
# Text: as §3
# GST-hMSTN 101-200aa = target: T6, GST-hMSTN 101-200aa (human, UniProt A1C2U3 101-200 (Pongo pygmaeus entry)); test: Western blot on GST tagged fragments
# T6 construct: As GST-hMSTN 1-100aa; also called sixth fragment; not shown: GST tag from the pGEX4.1 vector
# T6 sequence: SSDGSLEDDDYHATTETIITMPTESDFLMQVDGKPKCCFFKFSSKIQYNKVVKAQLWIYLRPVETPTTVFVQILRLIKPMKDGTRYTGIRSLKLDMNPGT
# Text: as §3
# GST-hMSTN 121-220aa = target: T7, GST-hMSTN 121-220aa (human, UniProt A1C2U3 121-220 (Pongo pygmaeus entry)); test: Western blot on GST tagged fragments
# T7 construct: As GST-hMSTN 1-100aa; also called seventh fragment; not shown: GST tag from the pGEX4.1 vector
# T7 sequence: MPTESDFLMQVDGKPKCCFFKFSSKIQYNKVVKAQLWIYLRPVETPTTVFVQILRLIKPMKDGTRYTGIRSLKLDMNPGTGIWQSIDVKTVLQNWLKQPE
# Text: as §3
# GST-hMSTN 141-241aa = target: T8, GST-hMSTN 141-241aa (human, UniProt A1C2U3 141-241 (Pongo pygmaeus entry)); test: Western blot on GST tagged fragments
# T8 construct: As GST-hMSTN 1-100aa; also called eighth fragment; not shown: GST tag from the pGEX4.1 vector
# T8 sequence: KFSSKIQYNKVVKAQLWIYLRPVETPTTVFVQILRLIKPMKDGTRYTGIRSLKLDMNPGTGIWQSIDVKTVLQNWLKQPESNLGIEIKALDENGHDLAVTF
# Text: as §3
# [10] = target: T9, human FcγRIIb constitutively expressed on MDCK cells (human, UniProt P31994 43-310); test: cell-based or functional assay
# T9 sequence (looked up): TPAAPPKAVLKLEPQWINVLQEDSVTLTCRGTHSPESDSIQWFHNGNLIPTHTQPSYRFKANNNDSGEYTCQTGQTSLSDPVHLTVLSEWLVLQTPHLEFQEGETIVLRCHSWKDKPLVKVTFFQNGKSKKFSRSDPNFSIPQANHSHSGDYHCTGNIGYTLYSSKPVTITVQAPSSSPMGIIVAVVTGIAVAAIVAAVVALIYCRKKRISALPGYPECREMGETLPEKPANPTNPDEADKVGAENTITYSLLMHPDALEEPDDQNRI
binder,measurement,setting,value
B1,Kd,Human latent myostatin [1],0.17 nM
same,koff,Human latent myostatin [1],0.000216 s⁻¹
same,kon,Human latent myostatin [1],1.27e+06 M⁻¹ s⁻¹
same,Kd,[2],0.165 nM
same,koff,[2],0.000197 s⁻¹
same,kon,[2],1.19e+06 M⁻¹ s⁻¹
same,Kd,Mouse latent myostatin [3],0.149 nM
same,koff,Mouse latent myostatin [3],0.000217 s⁻¹
same,kon,Mouse latent myostatin [3],1.45e+06 M⁻¹ s⁻¹
same,Kd,Human latent myostatin [4],19.9 nM
same,koff,Human latent myostatin [4],0.0242 s⁻¹
same,kon,Human latent myostatin [4],1.22e+06 M⁻¹ s⁻¹
same,Kd,[5],8.9 nM
same,koff,[5],0.0068 s⁻¹
same,kon,[5],764000 M⁻¹ s⁻¹
same,Kd,Mouse latent myostatin [6],6.15 nM
same,koff,Mouse latent myostatin [6],0.00625 s⁻¹
same,kon,Mouse latent myostatin [6],1.02e+06 M⁻¹ s⁻¹
same,Kd,Human latent myostatin [7],0.788 nM
same,koff,Human latent myostatin [7],0.00129 s⁻¹
same,kon,Human latent myostatin [7],1.64e+06 M⁻¹ s⁻¹
same,Kd,[8],0.954 nM
same,koff,[8],0.0011 s⁻¹
same,kon,[8],1.15e+06 M⁻¹ s⁻¹
same,Kd,Mouse latent myostatin [9],0.713 nM
same,koff,Mouse latent myostatin [9],0.00107 s⁻¹
same,kon,Mouse latent myostatin [9],1.5e+06 M⁻¹ s⁻¹
B2,binding result,GST-hMSTN 61-160aa,no binding
same,binding result,GST-hMSTN 81-180aa,no binding
same,binding result,GST-hMSTN 101-200aa,no binding
same,binding result,GST-hMSTN 121-220aa,no binding
same,binding result,GST-hMSTN 141-241aa,no binding
B3,binding result,GST-hMSTN 101-200aa,no binding
same,binding result,GST-hMSTN 121-220aa,no binding
same,binding result,GST-hMSTN 141-241aa,no binding
B4,"cell imaging: fluorescence intensity of labelled human latent myostatin taken up as antigen-antibody complex into MDCK cells expressing human FcγRIIb, relative to SG1",[10],7.5 fold
B5,"cell imaging: uptake of labelled antigen-antibody complex into MDCK cells expressing human FcγRIIb, relative to SG1",[10],36 fold
